# Reference: patent US20030059461A1 (SIBTECH, published 2003)
# B1: txFVEGF121 fusion protein (ligand, human, UniProt P15692-9 27-147, looked up, not shown: large carriers)
# chain: APMAEGGGQNHHEVVKFMDVYQRSYCHPIETLVDIFQEYPDEIEYIFKPSCVPLMRCGGCCNDEGLECVPTEESNITMQIMRIKPHQGQHIGEMSFLQHNKCECRPKKDRARQEKCDKPRR
# modifications: 125I label in the Scatchard experiment
# notes: mature; also called txVEGF121
# B2: txFVEGF189 fusion protein (ligand, human, UniProt P15692-2 27-215, looked up, not shown: large carriers)
# chain: APMAEGGGQNHHEVVKFMDVYQRSYCHPIETLVDIFQEYPDEIEYIFKPSCVPLMRCGGCCNDEGLECVPTEESNITMQIMRIKPHQGQHIGEMSFLQHNKCECRPKKDRARQEKKSVRGKGKGQKRKRKKSRYKSWSVPCGPCSERRKHLFVQDPQTCKCSCKNTDSRCKARQLELNERTCRCDKPRR
# notes: mature; also called txVEGF189
# Legend:
# [1] = target: T1, KDR/flk-1 receptor on 293/KDR or PAE/KDR cells (UniProt P35968 20-1356, limits assumed); test: Scatchard analysis on 293/KDR cells
# T1 construct: whole, on cells; also called cellular KDR/flk-1 receptors
# T1 sequence (P35968 20-1356 limits assumed): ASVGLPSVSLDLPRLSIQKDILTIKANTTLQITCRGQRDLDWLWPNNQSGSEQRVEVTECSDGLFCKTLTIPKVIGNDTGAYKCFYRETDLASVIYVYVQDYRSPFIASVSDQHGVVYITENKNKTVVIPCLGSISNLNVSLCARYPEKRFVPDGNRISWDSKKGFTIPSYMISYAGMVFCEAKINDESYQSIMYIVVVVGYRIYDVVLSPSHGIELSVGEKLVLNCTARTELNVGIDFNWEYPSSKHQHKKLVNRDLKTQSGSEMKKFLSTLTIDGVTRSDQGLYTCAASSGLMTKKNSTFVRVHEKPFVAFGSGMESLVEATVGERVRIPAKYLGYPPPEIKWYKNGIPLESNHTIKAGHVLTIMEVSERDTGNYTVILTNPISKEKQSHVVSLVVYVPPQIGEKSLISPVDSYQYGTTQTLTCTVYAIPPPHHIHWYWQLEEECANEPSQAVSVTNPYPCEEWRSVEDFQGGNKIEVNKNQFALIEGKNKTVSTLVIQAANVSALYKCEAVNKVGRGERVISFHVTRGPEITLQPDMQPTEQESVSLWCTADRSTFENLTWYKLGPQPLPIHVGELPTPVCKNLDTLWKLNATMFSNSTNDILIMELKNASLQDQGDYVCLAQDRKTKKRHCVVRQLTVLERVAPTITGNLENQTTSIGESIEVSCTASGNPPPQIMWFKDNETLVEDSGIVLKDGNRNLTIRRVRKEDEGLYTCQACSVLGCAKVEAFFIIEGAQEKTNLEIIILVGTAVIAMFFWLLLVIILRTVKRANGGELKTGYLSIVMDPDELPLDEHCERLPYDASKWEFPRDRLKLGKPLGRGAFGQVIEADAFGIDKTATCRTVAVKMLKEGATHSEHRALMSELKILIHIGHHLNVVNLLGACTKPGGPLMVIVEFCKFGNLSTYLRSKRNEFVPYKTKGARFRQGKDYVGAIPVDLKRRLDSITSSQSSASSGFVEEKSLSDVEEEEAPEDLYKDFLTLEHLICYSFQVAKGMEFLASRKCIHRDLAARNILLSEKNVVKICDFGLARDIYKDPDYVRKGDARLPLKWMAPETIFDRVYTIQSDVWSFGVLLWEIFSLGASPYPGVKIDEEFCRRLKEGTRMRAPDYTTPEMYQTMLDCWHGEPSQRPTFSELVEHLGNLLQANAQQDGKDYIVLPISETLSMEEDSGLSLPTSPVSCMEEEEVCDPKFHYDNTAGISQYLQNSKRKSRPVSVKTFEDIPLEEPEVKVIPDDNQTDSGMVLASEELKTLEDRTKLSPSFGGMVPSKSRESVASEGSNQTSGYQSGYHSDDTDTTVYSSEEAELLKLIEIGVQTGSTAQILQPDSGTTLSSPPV
# [2] = target: T1, KDR/flk-1 receptor on 293/KDR or …; test: Scatchard analysis of 125I-labelled protein binding to 293/KDR cells
# soluble KDR-Fc receptor = target: T2, soluble KDR-Fc receptor (human, UniProt P35968 20-764, limits assumed); test: competition with 125I-VEGF165 for soluble KDR-Fc
# T2 construct: extracellular domain; also called soluble, secreted extracellular domain of the KDR/flk-1 receptor fused to the Fc portion of human IgG; not shown: Fc portion of human IgG
# T2 sequence (P35968 20-764 limits assumed): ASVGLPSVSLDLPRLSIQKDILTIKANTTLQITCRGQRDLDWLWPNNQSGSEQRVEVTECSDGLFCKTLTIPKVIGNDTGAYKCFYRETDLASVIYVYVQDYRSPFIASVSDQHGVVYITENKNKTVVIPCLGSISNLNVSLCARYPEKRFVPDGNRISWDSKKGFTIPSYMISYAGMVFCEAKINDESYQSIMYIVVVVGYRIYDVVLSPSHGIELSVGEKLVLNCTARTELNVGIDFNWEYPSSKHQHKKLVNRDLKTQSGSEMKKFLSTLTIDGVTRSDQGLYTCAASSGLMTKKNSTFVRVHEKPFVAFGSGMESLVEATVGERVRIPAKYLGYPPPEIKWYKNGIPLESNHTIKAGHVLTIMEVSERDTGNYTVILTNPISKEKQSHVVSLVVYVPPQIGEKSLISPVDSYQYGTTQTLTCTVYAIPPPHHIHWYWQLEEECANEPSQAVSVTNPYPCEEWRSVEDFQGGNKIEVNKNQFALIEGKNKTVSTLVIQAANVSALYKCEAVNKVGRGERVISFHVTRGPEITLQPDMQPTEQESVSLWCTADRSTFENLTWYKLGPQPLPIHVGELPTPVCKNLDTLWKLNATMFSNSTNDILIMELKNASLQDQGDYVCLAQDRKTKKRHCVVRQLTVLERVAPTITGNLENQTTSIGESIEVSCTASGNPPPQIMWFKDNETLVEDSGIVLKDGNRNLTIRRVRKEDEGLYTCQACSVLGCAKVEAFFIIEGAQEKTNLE
# [3] = target: T1, KDR/flk-1 receptor on 293/KDR or …; test: as described in Example 1.G.2 (binding to KDR/flk-1)
Binder,fold lower affinity than VEGF165 [1],Kd [2],binding result (soluble KDR-Fc receptor),binding result [3]
B1,~10 fold,3.5 nM,–,–
B2,–,–,binds,binds
